From publication doi:10.1101/2020.03.15.992883 (2020)

Biological target: SARS-CoV-2 S receptor-binding domain (RBD) with C-terminal His6 tag (SARS-CoV-2, glycan N343)
Assay: BLI

B1: CR3022 IgG (human IgG1, kappa) (antibody, V domains shown)
VH: EVQLVQSGTEVKKPGESLKISCKGSGYGFITYWIGWVRQMPGKGLEWMGIIYPGDSETRYSPSFQGQVTISADKSINTAYLQWSSLKASDTAIYYCAGGSGISTPMDVWGQGTTVTVSS
VL: not shown
Kd: 12.4 nM
